In PMC2494536 (Cell, 2008):
Like-named read-outs stand apart in the source and are kept apart here.

B1: kinase domain of Csk, residues 187-450 (domain or fragment, UniProt P41240 187-450, looked up)
chain: GWALNMKELKLLQTIGKGEFGDVMLGDYRGNKVAVKCIKNDATAQAFLAEASVMTQLRHSNLVQLLGVIVEEKGGLYIVTEYMAKGSLVDYLRSRGRSVLGGDCLLKFSLDVCEAMEYLEGNNFVHRDLAARNVLVSEDNVAKVSDFGLTKEASSTQDTGKLPVKWTAPEALREKKFSTKSDVWSFGILLWEIYSFGRVPYPRIPLKDVVPRVEKGYKMDAPDGCPPAVYEVMKNCWHLDAAMRPSFLQLREQLEHIKTHELHL
B2: kinase domain of wildtype chicken c-Src, residues 251-533 (domain or fragment, UniProt P00523 251-533, looked up)
chain: QTQGLAKDAWEIPRESLRLEVKLGQGCFGEVWMGTWNGTTRVAIKTLKPGTMSPEAFLQEAQVMKKLRHEKLVQLYAVVSEEPIYIVTEYMSKGSLLDFLKGEMGKYLRLPQLVDMAAQIASGMAYVERMNYVHRDLRAANILVGENLVCKVADFGLARLIEDNEYTARQGAKFPIKWTAPEAALYGRFTIKSDVWSFGILLTELTTKGRVPYPGMVNREVLDQVERGYRMPCPPECPESLHDLMCQCWRKDPEERPTFEYLQAFLEDYFTSTEPQYQPGENL

Columns and labels:
Assay in all cases: SPR
[1] = target: B2
[2] = target: T1, full-length Csk (C-terminal Src Kinase), residues 1-450 (UniProt P41240 1-450)
[3] = target: T2, Csk construct lacking the SH3 domain (SH2 and kinase domains), residues 68-450 (UniProt P41240 68-450)
[4] = target: T1, full-length Csk (C-terminal Src …); remark: listed apart in the source
[5] = target: T2, Csk construct lacking the SH3 domain …; remark: listed apart in the source

| Binder | Kd [1] [µM] | Kd [2] [µM] | Kd [3] [µM] | Kd [4] [µM] | Kd [5] [µM] |
| --- | --- | --- | --- | --- | --- |
| B1 | ~70 |  |  |  |  |
| B2 |  | ~30 | ~30 | ~4 | ~4 |
